To fix the notation:
B1: Azoarcus group I ribozyme (parent)
chain: GUGCCUUGCGCCGGGAAACCACGCAAGGGAUGGUGUCAAAUUCGGCGAAACCUAAGCGCCCGCCCGGGCGUAUGGCAACGCCGAGCCAAGCUUCGGCGCCUGCGCCGAUGAAGGUGUAGAGACUAGACGGCACCCACCUAAGGCAAACGCUAUGGUGAAGGCAUAGUCCAGGGAGUGGCGAAAGUCACACAAACCGG

In the RNAGym collection of RNA variant scans (doi:10.1093/molbev/msab373) one finds reverse-splicing fitness data, which are given here for 15 variants.

Variants of B1 are the subject of the data set. The experiment in a line: reverse-splicing fitness (ratio to wild type); higher = more active; in vitro selection; Mg2+ level not given. A digest of the protocol:
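An in vitro group I ribozyme library with randomized positions was T7-transcribed and gel-purified. In triplicate, 10 pmol RNA in EPPS pH 7.5 was reacted with 50 pmoles of a 30-nt RNA substrate for 1 h at 37 °C across several added MgCl2 levels (1–48 mM), then stopped with EDTA. Products were reverse transcribed from a substrate-complementary primer, PCR-amplified and sequenced (HiSeq 4000). Fitness is a variant's read proportion after selection over that before, normalised to wild type.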
On to GUGCCUUGCGCCGGGAAACCACGCAAGGGAUGGUGUCAAAUUCGGCGAAACCUAAGCGCCCGCCCGGGCGUAUGGCAACGCUGAGCCAAGCUUCGGCGCCUGCGCCGAUGAAGGUGUAGCGACUAGACGGCACCCACCUAAGGCCAACGCUAUGGUGAAGGCAUAGUCAAGGGAGUGGCGAAAGUCACACAAACCGG [C82U A120C A145C C169A], for which the reverse-splicing fitness was 0.00538.

For GUGCCUUGCGCCGGGAAACCACGCAAGGGAUGGUGUCAAAUUCGGCGAAACCUAAGCGCCCGCCCGGGCGUAUGGCAACGCUGAGCCAAGCUUCGGCGCCUGCGCCGAUGAAGGUGUAGCGACUAGACGGCACCCACCUAAGGCCAACGCUAUGGUGAAGGCAUAGUCUAGGGAGUGGCGAAAGUCACACAAACCGG [C82U A120C A145C C169U], the reverse-splicing fitness came out at 0.0225.

On to GUGCCUUGCGCCGGGAAACCACGCAAGGGAUGGUGUCAAAUUCGGCGAAACCUAAGCGCCCGCCCGGGCGUAUGGCAACGCUGAGCCAAGCUUCGGCGCCUGCGCCGAUGAAGGUGUAGCGACUAGACGGCACCCACCUAAGGCCAACGCUAUGGUGAAGGCAUAGUCGAGGGAGUGGCGAAAGUCACACAAACCGG [C82U A120C A145C C169G], for which the reverse-splicing fitness stood at 0.00713.

For GUGCCUUGCGCCGGGAAACCACGCAAGGGAUGGUGUCAAAUUCGGCGAAACCUAAGCGCCCGCCCGGGCGUAUGGCAACGCUGAGCCAAGCUUCGGCGCCUGCGCCGAUGAAGGUGUAGCGACUAGACGGCACCCACCUAAGGCCAACGUUAUGGUGAAGGCAUAGUCGAGGGAGAGGCGAAAGUCACACAAACCGG [C82U A120C A145C C150U C169G U176A], the reverse-splicing fitness is 0.0142.

Turning to GUGCCUUGCGCCGGGAAACCACGCAAGGGAUGGUGUCAAAUUCGGCGAAACCUAAGCGCCCGCCCGGGCGUAUGGCAACGCUGAGCCAAGCUUCGGCGCCUGCGCCGAUGAAGGUGUAGCGACUAGACGGCACCCACCUAAGGCCAACGUUAUGGUGAAGGCAUAGUCGAGGGAGCGGCGAAAGUCACACAAACCGG [C82U A120C A145C C150U C169G U176C], the reverse-splicing fitness came out at 0.00645.

For GUGCCUUGCGCCGGGAAACCACGCAAGGGAUGGUGUCAAAUUCGGCGAAACCUAAGCGCCCGCCCGGGCGUAUGGCAACGCUGAGCCAAGCUUCGGCGCCUGCGCCGAUGAAGGUGUAGCGACUAGACGGCACCCACCUAAGGCCAACGUUAUGGUGAAGGCAUAGUCGAGGGAGGGGCGAAAGUCACACAAACCGG [C82U A120C A145C C150U C169G U176G], the reverse-splicing fitness was determined as 0.00398.

Take GUGCCUUGCGCCGGGAAACCACGCAAGGGAUGGUGUCAAAUUCGGCGAAACCUAAGCGCCCGCCCGGGCGUAUGGCAACGCUGAGCCAAGCUUCGGCGCCUGCGCCGAUGAAGGUGUAGCGACUAGACGGCACCCACCUAAGGCCAACGGUAUGGUGAAGGCAUAGUCCAGGGAGGGGCGAAAGUCACACAAACCGG [C82U A120C A145C C150G U176G]: the reverse-splicing fitness came out at 0.00307.

In the case of GUGCCUUGCGCCGGGAAACCACGCAAGGGAUGGUGUCAAAUUCGGCGAAACCUAAGCGCCCGCCCGGGCGUAUGGCAACGCUGAGCCAAGCUUCGGCGCCUGCGCCGAUGAAGGUGUAGCGACUAGACGGCACCCACCUAAGGCCAACGGUAUGGUGAAGGCAUAGUCCAGGGAGCGGCGAAAGUCACACAAACCGG [C82U A120C A145C C150G U176C], the reverse-splicing fitness was 0.0126.

For GUGCCUUGCGCCGGGAAACCACGCAAGGGAUGGUGUCAAAUUCGGCGAAACCUAAGCGCCCGCCCGGGCGUAUGGCAACGCUGAGCCAAGCUUCGGCGCCUGCGCCGAUGAAGGUGUAGCGACUAGACGGCACCCACCUAAGGCCAACGUUAUGGUGAAGGCAUAGUCAAGGGAGCGGCGAAAGUCACACAAACCGG [C82U A120C A145C C150U C169A U176C], the reverse-splicing fitness is 0.00498.

With GUGCCUUGCGCCGGGAAACCACGCAAGGGAUGGUGUCAAAUUCGGCGAAACCUAAGCGCCCGCCCGGGCGUAUGGCAACGCUGAGCCAAGCUUCGGCGCCUGCGCCGAUGAAGGUGUAGCGACUAGACGGCACCCACCUAAGGCCAACGUUAUGGUGAAGGCAUAGUCAAGGGAGAGGCGAAAGUCACACAAACCGG [C82U A120C A145C C150U C169A U176A], the reverse-splicing fitness is 0.00715.

With GUGCCUUGCGCCGGGAAACCACGCAAGGGAUGGUGUCAAAUUCGGCGAAACCUAAGCGCCCGCCCGGGCGUAUGGCAACGCUGAGCCAAGCUUCGGCGCCUGCGCCGAUGAAGGUGUAGCGACUAGACGGCACCCACCUAAGGCCAACGUUAUGGUGAAGGCAUAGUCAAGGGAGGGGCGAAAGUCACACAAACCGG [C82U A120C A145C C150U C169A U176G], the reverse-splicing fitness turned out to be 0.00409.

For GUGCCUUGCGCCGGGAAACCACGCAAGGGAUGGUGUCAAAUUCGGCGAAACCUAAGCGCCCGCCCGGGCGUAUGGCAACGCUGAGCCAAGCUUCGGCGCCUGCGCCGAUGAAGGUGUAGCGACUAGACGGCACCCACCUAAGGCCAACGCUAUGGUGAAGGCAUAGUCGAGGGAGAGGCGAAAGUCACACAAACCGG [C82U A120C A145C C169G U176A], the reverse-splicing fitness worked out at 0.0129.

GUGCCUUGCGCCGGGAAACCACGCAAGGGAUGGUGUCAAAUUCGGCGAAACCUAAGCGCCCGCCCGGGCGUAUGGCAACGCUGAGCCAAGCUUCGGCGCCUGCGCCGAUGAAGGUGUAGCGACUAGACGGCACCCACCUAAGGCCAACGCUAUGGUGAAGGCAUAGUCGAGGGAGCGGCGAAAGUCACACAAACCGG [C82U A120C A145C C169G U176C]: the reverse-splicing fitness came out at 0.00783.

On to GUGCCUUGCGCCGGGAAACCACGCAAGGGAUGGUGUCAAAUUCGGCGAAACCUAAGCGCCCGCCCGGGCGUAUGGCAACGCUGAGCCAAGCUUCGGCGCCUGCGCCGAUGAAGGUGUAGCGACUAGACGGCACCCACCUAAGGCCAACGCUAUGGUGAAGGCAUAGUCGAGGGAGGGGCGAAAGUCACACAAACCGG [C82U A120C A145C C169G U176G], for which the reverse-splicing fitness was 0.00341.

For GUGCCUUGCGCCGGGAAACCACGCAAGGGAUGGUGUCAAAUUCGGCGAAACCUAAGCGCCCGCCCGGGCGUAUGGCAACGCUGAGCCAAGCUUCGGCGCCUGCGCCGAUGAAGGUGUAGCGACUAGACGGCACCCACCUAAGGCCAACGUUAUGGUGAAGGCAUAGUCCAGGGAGUGGCGAAAGUCACACAAACCGG [C82U A120C A145C C150U], the reverse-splicing fitness came out at 0.0393.
